US20260015399A1 (Boehringer Ingelheim, published 2026)
*1 amine or outer side, *2 acyl side, *3 side chain or, on linkers, in order; H or OH if unused. Side-chain parts run from the residue outwards. The star is where a group is joined. C18 diacid = O=C(O)CCCCCCCCCCCCCCCCC(=O)*; γGlu = O=C(O)[C@H](CCC(=O)[*:2])N[*:1]; Isovaleryl = CC(C)CC(=O)*; Ahx = NCCCCCC(=O)O

B1: Compound 11 (peptide)
peptide: Isovaleryl-APEK([Ahx-γGlu-C18 diacid])PEADASPEEIQRYYISLRHYYNWLTRQRY-NH2
SMILES: CC[C@H](C)[C@H](NC(=O)[C@H](Cc1ccc(O)cc1)NC(=O)[C@H](Cc1ccc(O)cc1)NC(=O)[C@H](CCCNC(=N)N)NC(=O)[C@H](CCC(N)=O)NC(=O)[C@@H](NC(=O)[C@H](CCC(=O)O)NC(=O)[C@H](CCC(=O)O)NC(=O)[C@@H]1CCCN1C(=O)[C@H](CO)NC(=O)[C@H](C)NC(=O)[C@H](CC(=O)O)NC(=O)[C@H](C)NC(=O)[C@H](CCC(=O)O)NC(=O)[C@@H]1CCCN1C(=O)[C@H](CCCCNC(=O)CCCCCNC(=O)CC[C@H](NC(=O)CCCCCCCCCCCCCCCCC(=O)O)C(=O)O)NC(=O)[C@H](CCC(=O)O)NC(=O)[C@@H]1CCCN1C(=O)[C@H](C)NC(=O)CC(C)C)[C@@H](C)CC)C(=O)N[C@@H](CO)C(=O)N[C@@H](CC(C)C)C(=O)N[C@@H](CCCNC(=N)N)C(=O)N[C@@H](Cc1c[nH]cn1)C(=O)N[C@@H](Cc1ccc(O)cc1)C(=O)N[C@@H](Cc1ccc(O)cc1)C(=O)N[C@@H](CC(N)=O)C(=O)N[C@@H](Cc1c[nH]c2ccccc12)C(=O)N[C@@H](CC(C)C)C(=O)N[C@H](C(=O)N[C@@H](CCCNC(=N)N)C(=O)N[C@@H](CCC(N)=O)C(=O)N[C@@H](CCCNC(=N)N)C(=O)N[C@@H](Cc1ccc(O)cc1)C(N)=O)[C@@H](C)O
B2: Compound 53 (peptide)
peptide: Isovaleryl-APEK([Ahx-γGlu-C18 diacid])PEEDAEPEEVQRYYVSLRHYYNWLTRQRY-NH2
SMILES: CC(C)CC(=O)N[C@@H](C)C(=O)N1CCC[C@H]1C(=O)N[C@@H](CCC(=O)O)C(=O)N[C@@H](CCCCNC(=O)CCCCCNC(=O)CC[C@H](NC(=O)CCCCCCCCCCCCCCCCC(=O)O)C(=O)O)C(=O)N1CCC[C@H]1C(=O)N[C@@H](CCC(=O)O)C(=O)N[C@@H](CCC(=O)O)C(=O)N[C@@H](CC(=O)O)C(=O)N[C@@H](C)C(=O)N[C@@H](CCC(=O)O)C(=O)N1CCC[C@H]1C(=O)N[C@@H](CCC(=O)O)C(=O)N[C@@H](CCC(=O)O)C(=O)N[C@H](C(=O)N[C@@H](CCC(N)=O)C(=O)N[C@@H](CCCNC(=N)N)C(=O)N[C@@H](Cc1ccc(O)cc1)C(=O)N[C@@H](Cc1ccc(O)cc1)C(=O)N[C@H](C(=O)N[C@@H](CO)C(=O)N[C@@H](CC(C)C)C(=O)N[C@@H](CCCNC(=N)N)C(=O)N[C@@H](Cc1c[nH]cn1)C(=O)N[C@@H](Cc1ccc(O)cc1)C(=O)N[C@@H](Cc1ccc(O)cc1)C(=O)N[C@@H](CC(N)=O)C(=O)N[C@@H](Cc1c[nH]c2ccccc12)C(=O)N[C@@H](CC(C)C)C(=O)N[C@H](C(=O)N[C@@H](CCCNC(=N)N)C(=O)N[C@@H](CCC(N)=O)C(=O)N[C@@H](CCCNC(=N)N)C(=O)N[C@@H](Cc1ccc(O)cc1)C(N)=O)[C@@H](C)O)C(C)C)C(C)C
B3: Compound 122 (peptide)
peptide: Isovaleryl-APEK([Ahx-γGlu-C18 diacid])PEAEASPEELQRYYVSLRHYYNWLTRQRY-NH2
B4: Compound 183 (peptide)
peptide: Isovaleryl-APEK([Ahx-γGlu-C18 diacid])AEEDASPEEIQRYYVSLRHYYNWLTRQRY-NH2
SMILES: CC[C@H](C)[C@H](NC(=O)[C@H](CCC(=O)O)NC(=O)[C@H](CCC(=O)O)NC(=O)[C@@H]1CCCN1C(=O)[C@H](CO)NC(=O)[C@H](C)NC(=O)[C@H](CC(=O)O)NC(=O)[C@H](CCC(=O)O)NC(=O)[C@H](CCC(=O)O)NC(=O)[C@H](C)NC(=O)[C@H](CCCCNC(=O)CCCCCNC(=O)CC[C@H](NC(=O)CCCCCCCCCCCCCCCCC(=O)O)C(=O)O)NC(=O)[C@H](CCC(=O)O)NC(=O)[C@@H]1CCCN1C(=O)[C@H](C)NC(=O)CC(C)C)C(=O)N[C@@H](CCC(N)=O)C(=O)N[C@@H](CCCNC(=N)N)C(=O)N[C@@H](Cc1ccc(O)cc1)C(=O)N[C@@H](Cc1ccc(O)cc1)C(=O)N[C@H](C(=O)N[C@@H](CO)C(=O)N[C@@H](CC(C)C)C(=O)N[C@@H](CCCNC(=N)N)C(=O)N[C@@H](Cc1c[nH]cn1)C(=O)N[C@@H](Cc1ccc(O)cc1)C(=O)N[C@@H](Cc1ccc(O)cc1)C(=O)N[C@@H](CC(N)=O)C(=O)N[C@@H](Cc1c[nH]c2ccccc12)C(=O)N[C@@H](CC(C)C)C(=O)N[C@H](C(=O)N[C@@H](CCCNC(=N)N)C(=O)N[C@@H](CCC(N)=O)C(=O)N[C@@H](CCCNC(=N)N)C(=O)N[C@@H](Cc1ccc(O)cc1)C(N)=O)[C@@H](C)O)C(C)C
B5: Compound 196 (peptide)
peptide: Isovaleryl-APEK([Ahx-γGlu-C18 diacid])PEADASPEELQRYYVSLRHYYNWLTRQRY-NH2
SMILES: CC(C)CC(=O)N[C@@H](C)C(=O)N1CCC[C@H]1C(=O)N[C@@H](CCC(=O)O)C(=O)N[C@@H](CCCCNC(=O)CCCCCNC(=O)CC[C@H](NC(=O)CCCCCCCCCCCCCCCCC(=O)O)C(=O)O)C(=O)N1CCC[C@H]1C(=O)N[C@@H](CCC(=O)O)C(=O)N[C@@H](C)C(=O)N[C@@H](CC(=O)O)C(=O)N[C@@H](C)C(=O)N[C@@H](CO)C(=O)N1CCC[C@H]1C(=O)N[C@@H](CCC(=O)O)C(=O)N[C@@H](CCC(=O)O)C(=O)N[C@@H](CC(C)C)C(=O)N[C@@H](CCC(N)=O)C(=O)N[C@@H](CCCNC(=N)N)C(=O)N[C@@H](Cc1ccc(O)cc1)C(=O)N[C@@H](Cc1ccc(O)cc1)C(=O)N[C@H](C(=O)N[C@@H](CO)C(=O)N[C@@H](CC(C)C)C(=O)N[C@@H](CCCNC(=N)N)C(=O)N[C@@H](Cc1c[nH]cn1)C(=O)N[C@@H](Cc1ccc(O)cc1)C(=O)N[C@@H](Cc1ccc(O)cc1)C(=O)N[C@@H](CC(N)=O)C(=O)N[C@@H](Cc1c[nH]c2ccccc12)C(=O)N[C@@H](CC(C)C)C(=O)N[C@H](C(=O)N[C@@H](CCCNC(=N)N)C(=O)N[C@@H](CCC(N)=O)C(=O)N[C@@H](CCCNC(=N)N)C(=O)N[C@@H](Cc1ccc(O)cc1)C(N)=O)[C@@H](C)O)C(C)C
B6: Compound 172 (peptide)
peptide: Isovaleryl-APEK([Ahx-γGlu-C18 diacid])PPEDASPEEIQRYYVSLRHYYNWLTRQRY-NH2
SMILES: CC[C@H](C)[C@H](NC(=O)[C@H](CCC(=O)O)NC(=O)[C@H](CCC(=O)O)NC(=O)[C@@H]1CCCN1C(=O)[C@H](CO)NC(=O)[C@H](C)NC(=O)[C@H](CC(=O)O)NC(=O)[C@H](CCC(=O)O)NC(=O)[C@@H]1CCCN1C(=O)[C@@H]1CCCN1C(=O)[C@H](CCCCNC(=O)CCCCCNC(=O)CC[C@H](NC(=O)CCCCCCCCCCCCCCCCC(=O)O)C(=O)O)NC(=O)[C@H](CCC(=O)O)NC(=O)[C@@H]1CCCN1C(=O)[C@H](C)NC(=O)CC(C)C)C(=O)N[C@@H](CCC(N)=O)C(=O)N[C@@H](CCCNC(=N)N)C(=O)N[C@@H](Cc1ccc(O)cc1)C(=O)N[C@@H](Cc1ccc(O)cc1)C(=O)N[C@H](C(=O)N[C@@H](CO)C(=O)N[C@@H](CC(C)C)C(=O)N[C@@H](CCCNC(=N)N)C(=O)N[C@@H](Cc1c[nH]cn1)C(=O)N[C@@H](Cc1ccc(O)cc1)C(=O)N[C@@H](Cc1ccc(O)cc1)C(=O)N[C@@H](CC(N)=O)C(=O)N[C@@H](Cc1c[nH]c2ccccc12)C(=O)N[C@@H](CC(C)C)C(=O)N[C@H](C(=O)N[C@@H](CCCNC(=N)N)C(=O)N[C@@H](CCC(N)=O)C(=O)N[C@@H](CCCNC(=N)N)C(=O)N[C@@H](Cc1ccc(O)cc1)C(N)=O)[C@@H](C)O)C(C)C

How the values were obtained:
human NPY4 receptor = human NPY4 receptor (human, UniProt P50391 1-375); assay: cell-based or functional assay
human NPY5 receptor = target: T1, human NPY5 receptor (human, UniProt Q15761 1-445); assay: cell-based or functional assay
T1 sequence (looked up): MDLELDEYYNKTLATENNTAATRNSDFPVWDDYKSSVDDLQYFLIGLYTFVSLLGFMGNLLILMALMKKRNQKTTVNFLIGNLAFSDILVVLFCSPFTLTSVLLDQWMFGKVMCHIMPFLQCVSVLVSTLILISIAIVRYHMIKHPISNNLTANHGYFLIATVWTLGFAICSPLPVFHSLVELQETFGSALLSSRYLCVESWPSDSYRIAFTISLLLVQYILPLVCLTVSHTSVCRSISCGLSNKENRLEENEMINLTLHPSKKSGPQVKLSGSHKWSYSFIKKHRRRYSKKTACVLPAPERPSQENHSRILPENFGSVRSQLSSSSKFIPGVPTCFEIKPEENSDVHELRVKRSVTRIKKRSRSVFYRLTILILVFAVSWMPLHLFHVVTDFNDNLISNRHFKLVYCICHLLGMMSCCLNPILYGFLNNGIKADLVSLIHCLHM

human NPY1 receptor = target: T2, human NPY1 receptor (human, UniProt P25929 1-384); assay: cell-based or functional assay
T2 sequence (looked up): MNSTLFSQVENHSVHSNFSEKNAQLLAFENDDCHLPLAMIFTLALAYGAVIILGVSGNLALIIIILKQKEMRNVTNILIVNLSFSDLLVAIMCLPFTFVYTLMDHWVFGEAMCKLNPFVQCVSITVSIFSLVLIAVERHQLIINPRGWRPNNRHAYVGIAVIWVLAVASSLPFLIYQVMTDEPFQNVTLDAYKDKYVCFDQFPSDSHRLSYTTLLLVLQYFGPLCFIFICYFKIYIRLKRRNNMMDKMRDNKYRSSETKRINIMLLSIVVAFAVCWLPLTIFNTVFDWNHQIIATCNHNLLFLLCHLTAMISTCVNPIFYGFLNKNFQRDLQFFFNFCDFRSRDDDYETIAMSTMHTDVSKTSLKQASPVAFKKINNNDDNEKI

human NPY2 receptor [1] = target: T3, human NPY2 receptor (human, UniProt P49146 1-381); assay: cell-based or functional assay
T3 sequence (looked up): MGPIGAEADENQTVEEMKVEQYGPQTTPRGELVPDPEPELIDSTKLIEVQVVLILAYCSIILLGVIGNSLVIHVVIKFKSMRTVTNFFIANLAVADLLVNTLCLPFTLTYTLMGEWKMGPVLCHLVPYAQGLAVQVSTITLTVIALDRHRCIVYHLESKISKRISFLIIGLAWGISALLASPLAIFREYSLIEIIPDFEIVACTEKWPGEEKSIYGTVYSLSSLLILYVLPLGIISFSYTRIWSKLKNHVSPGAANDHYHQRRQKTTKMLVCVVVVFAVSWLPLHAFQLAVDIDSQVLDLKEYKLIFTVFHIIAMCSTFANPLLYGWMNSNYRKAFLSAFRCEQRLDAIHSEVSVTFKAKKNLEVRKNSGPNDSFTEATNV

human NPY2 receptor [2] = target: T3, human NPY2 receptor; assay: RLB: displacement of 125I-PYY(1-36) from hNPY2R membranes

human NPY4 receptor, sequence (P50391 whole entry): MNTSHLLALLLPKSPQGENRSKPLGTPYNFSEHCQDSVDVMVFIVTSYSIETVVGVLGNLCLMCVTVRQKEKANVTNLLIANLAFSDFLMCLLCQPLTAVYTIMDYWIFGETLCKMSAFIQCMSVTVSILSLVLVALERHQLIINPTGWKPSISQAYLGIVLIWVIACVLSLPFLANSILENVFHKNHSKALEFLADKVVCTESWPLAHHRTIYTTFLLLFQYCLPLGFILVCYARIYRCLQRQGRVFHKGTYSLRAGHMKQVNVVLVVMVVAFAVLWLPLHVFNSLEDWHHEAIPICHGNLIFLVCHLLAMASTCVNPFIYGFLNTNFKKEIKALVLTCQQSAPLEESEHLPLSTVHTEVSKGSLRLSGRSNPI

Row | Binder | EC50, HTRF cAMP Gi assay (human NPY4 receptor) | EC50, HTRF cAMP Gi assay (human NPY5 receptor) | EC50, HTRF cAMP Gi assay (human NPY1 receptor) | EC50, HTRF cAMP Gi assay (human NPY2 receptor [1]) | Ki (human NPY2 receptor [2])
1 | B1 | > 5000 nM | > 5000 nM | > 5000 nM | 0.136 nM | 1.4 nM
2 | B2 | > 5000 nM | > 5000 nM | > 5000 nM | 0.352 nM | 3.07 nM
3 | B3 | > 5000 nM | > 5000 nM | > 5000 nM |  | 2.73 nM
4 | B4 |  | > 5000 nM |  | 0.447 nM | 18.8 nM
5 | B5 |  | > 5000 nM |  | 0.086 nM | 3.57 nM
6 | B6 |  | > 5000 nM |  | 0.079 nM | 0.81 nM
